Results published in US20230312698A1 (NANJING GENSCRIPT BIOTECH, published 2023).
Where two headings read alike, the source gives them in different places.

T1: human Ang2 protein (R&D Systems, 623-AN-01M/CF; 623-AN/CF) (human, UniProt O15123 19-496)
T1 chain: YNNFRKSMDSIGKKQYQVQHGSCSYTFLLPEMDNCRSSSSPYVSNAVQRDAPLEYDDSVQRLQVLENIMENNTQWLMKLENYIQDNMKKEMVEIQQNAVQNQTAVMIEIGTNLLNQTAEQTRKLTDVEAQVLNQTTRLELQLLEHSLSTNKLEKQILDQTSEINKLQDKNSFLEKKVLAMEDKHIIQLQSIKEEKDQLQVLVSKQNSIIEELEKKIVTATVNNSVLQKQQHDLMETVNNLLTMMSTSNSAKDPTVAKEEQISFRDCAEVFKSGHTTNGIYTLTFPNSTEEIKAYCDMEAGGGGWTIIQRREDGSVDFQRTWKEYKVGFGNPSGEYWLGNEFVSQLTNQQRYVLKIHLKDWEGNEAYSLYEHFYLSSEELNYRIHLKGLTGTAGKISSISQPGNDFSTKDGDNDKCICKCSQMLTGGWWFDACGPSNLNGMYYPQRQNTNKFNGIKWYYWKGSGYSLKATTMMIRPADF

T2: membrane-anchored human Ang2 protein expressed on CHO-K1 cells (human, UniProt O15123 19-496)
T2 chain: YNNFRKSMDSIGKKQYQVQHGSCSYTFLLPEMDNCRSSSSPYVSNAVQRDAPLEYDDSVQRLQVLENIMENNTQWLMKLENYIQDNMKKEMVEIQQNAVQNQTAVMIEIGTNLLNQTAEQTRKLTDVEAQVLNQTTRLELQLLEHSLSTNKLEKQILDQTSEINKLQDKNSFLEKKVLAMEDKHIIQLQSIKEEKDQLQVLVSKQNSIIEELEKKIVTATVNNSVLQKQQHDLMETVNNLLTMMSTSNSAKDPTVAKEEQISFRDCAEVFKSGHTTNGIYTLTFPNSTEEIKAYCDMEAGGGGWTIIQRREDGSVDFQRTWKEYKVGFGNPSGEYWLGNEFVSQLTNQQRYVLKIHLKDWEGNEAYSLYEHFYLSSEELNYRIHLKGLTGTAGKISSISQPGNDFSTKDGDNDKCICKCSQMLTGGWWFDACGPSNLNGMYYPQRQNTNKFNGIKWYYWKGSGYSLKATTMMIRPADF

T3: membrane-anchored cyno Ang2 protein expressed on CHO-K1 cells (cyno, UniProt A0A2K5VNX6 19-496)
T3 chain: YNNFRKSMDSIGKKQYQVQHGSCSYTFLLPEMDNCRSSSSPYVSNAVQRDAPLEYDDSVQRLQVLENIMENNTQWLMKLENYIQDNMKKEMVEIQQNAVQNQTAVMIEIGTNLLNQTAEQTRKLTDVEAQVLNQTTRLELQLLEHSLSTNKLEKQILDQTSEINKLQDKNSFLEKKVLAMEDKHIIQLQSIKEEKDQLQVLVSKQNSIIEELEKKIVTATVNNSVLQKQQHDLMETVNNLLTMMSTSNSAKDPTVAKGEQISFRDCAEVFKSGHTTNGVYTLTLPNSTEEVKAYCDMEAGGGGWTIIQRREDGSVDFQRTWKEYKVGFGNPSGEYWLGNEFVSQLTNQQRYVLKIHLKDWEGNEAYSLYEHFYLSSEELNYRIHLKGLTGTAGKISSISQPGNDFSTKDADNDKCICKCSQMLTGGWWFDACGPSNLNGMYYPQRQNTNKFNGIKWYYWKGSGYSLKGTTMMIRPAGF

T4: human Ang2 protein (R&D Systems, 623-AN-01M/CF; 623-AN/CF) (human, UniProt O15123 19-496)
T4 construct: Bought recombinant protein; also called Ang2 proteins; angiopoietin-2
T4 sequence (looked up): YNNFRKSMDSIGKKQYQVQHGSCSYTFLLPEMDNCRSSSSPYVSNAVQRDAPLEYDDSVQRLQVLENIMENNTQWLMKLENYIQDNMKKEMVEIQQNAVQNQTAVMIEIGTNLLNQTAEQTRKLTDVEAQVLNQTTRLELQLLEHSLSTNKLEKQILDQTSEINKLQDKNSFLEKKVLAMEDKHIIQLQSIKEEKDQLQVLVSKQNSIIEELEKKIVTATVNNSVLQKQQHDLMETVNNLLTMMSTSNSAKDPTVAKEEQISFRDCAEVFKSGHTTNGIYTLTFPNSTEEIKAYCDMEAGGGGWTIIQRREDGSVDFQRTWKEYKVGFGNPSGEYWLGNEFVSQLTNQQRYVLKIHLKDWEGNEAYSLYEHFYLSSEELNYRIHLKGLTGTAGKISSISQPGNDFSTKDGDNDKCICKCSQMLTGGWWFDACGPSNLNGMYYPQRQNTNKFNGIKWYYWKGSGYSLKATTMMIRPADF

T5: mouse Ang2 protein (R&D Systems, 7186-AN-025/CF) (mouse, UniProt O35608 19-496, limits assumed)
T5 construct: Bought recombinant protein
T5 sequence (looked up): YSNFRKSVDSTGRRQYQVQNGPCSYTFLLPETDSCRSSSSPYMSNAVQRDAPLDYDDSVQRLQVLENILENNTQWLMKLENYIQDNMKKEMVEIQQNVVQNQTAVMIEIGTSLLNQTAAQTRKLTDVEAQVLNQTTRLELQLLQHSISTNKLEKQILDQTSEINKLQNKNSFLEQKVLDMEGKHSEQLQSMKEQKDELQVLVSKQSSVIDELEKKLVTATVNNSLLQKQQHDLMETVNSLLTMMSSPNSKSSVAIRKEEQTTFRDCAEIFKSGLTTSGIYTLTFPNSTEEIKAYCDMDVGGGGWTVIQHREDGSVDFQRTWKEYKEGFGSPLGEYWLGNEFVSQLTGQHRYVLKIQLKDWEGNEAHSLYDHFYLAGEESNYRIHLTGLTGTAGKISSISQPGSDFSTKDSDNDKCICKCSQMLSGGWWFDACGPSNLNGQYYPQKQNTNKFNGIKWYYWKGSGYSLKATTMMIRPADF


Legend:
[1] = target: T1, human Ang2 protein (R&D Systems, …); test: ELISA
[2] = target: T1, human Ang2 protein (R&D Systems, …); test: ELISA
[3] = target: T2, membrane-anchored human Ang2 protein …; test: FACS
[4] = target: T3, membrane-anchored cyno Ang2 protein …; test: FACS
[5] = target: T4, human Ang2 protein (R&D Systems, …); test: indirect ELISA, human Ang2 coated at 0.5 µg/ml
Procedure: (§1) The antibodies were tested for their binding activities to Ang2 in an indirect ELISA. Briefly, 100 μl of 0.5 μg/ml human or mouse Ang2 proteins (R&D Systems; 623-AN-01M/CF for human Ang2, 7186-AN-025/CF for mouse Ang2) were pre-coated onto ELISA plates overnight at 4° C. On the next day, the plates were incubated with […] diluted primary antibodies, with initial concentration at 1 μg/ml. The plates were added with HRP-conjugated goat anti-mouse IgG (H+L) and then TMB for chromogenic reaction. The antibody-antigen binding curves were generated with optical density readings at 450 nm. Raw data was plotted using GraphPad Prism v6.02 software with four parameters, and best-fit values program was used to analyze the EC₅₀.

[6] = target: T5, mouse Ang2 protein (R&D Systems, …); test: indirect ELISA, mouse Ang2 coated at 0.5 µg/ml
Procedure: as §1

[7] = target: T4, human Ang2 protein (R&D Systems, …); test: indirect ELISA, human Ang2 coated at 0.5 µg/ml, anti-human IgG-HRP
Procedure: The humanized antibodies were tested for their binding activities to human Ang2 in an indirect ELISA. Briefly, 100 μl of 0.5 μg/ml human Ang2 proteins (R&D Systems; 623-AN-01M/CF) were pre-coated onto ELISA plates overnight at 4° C. On the next day, the plates were incubated with 100 μl 3× serially diluted primary antibodies, with initial concentration at 1 μg/ml. The plates were added with HRP-conjugated goat anti-human IgG antibody (Jackson, cat #109-605-098) and then TMB for chromogenic reaction. The antibody-antigen binding curves were generated with optical density readings at 450 nm. Antibody ABA and IgG1 were used as a positive and negative control respectively. Raw data was plotted using GraphPad Prism v6.02 software with four parameters, and best-fit values program was used to analyze the EC₅₀.

Binder | EC50 [1] | EC50 [2] | EC50 [3] | EC50 [4] | binding result [5] | binding result [6] | binding result [7]
53E8B2-VH3-VL2 (antibody, V domains shown) VH: EVQLVESGGGLVQPGGSLRLSCAASGFTFSDYAMAWVRQAPGKGLEWVATIIYDGSSTYYRDSVKGRFTISRDNAKNSLYLQMNSLRAEDTAVYYCARHGRVFGFGYFDYWGQGTLVTVSS VL: DIQMTQSPSSVSASVGDRVTITCQASQDIGDWVAWYQQKPGRAPKLLIYGADRLADGVPSRFSGSGSGTDFTLTISSLQPEDFATYYCLQDYSPPFTFGQGTKLEIK | 4.35 ng/mL |  |  |  |  |  | 
5A7B9 (antibody, V domains shown, Hybridoma antibody purified with Protein-A beads) VH: QIQLVQSGPELKKPGETVKISCKASGYTFTNYGVNWVKQAPGKGLKWMGWINSYSGVPTYADDFKGRFAFSLETSASTAYLQINNLKNEDTATYFCARGENNYYGGSYDWGQGTTLTVSS VL: SIVMTQTPKFLLVSAGDRVTITCKASQSVSNDVAWYQQKPGQSPKLLIYYASNRYTGVPDRFTGSGYGTDFTFTISTVQAEDLAVYFCQQDYSSPLTFGAGTKLELK |  | 7.47 ng/mL | 0.369 nM | 0.662 nM | binds | no binding (tested: initial concentration at 1 µg/ml) | 
4D8F2 (antibody, V domains shown, Hybridoma antibody purified with Protein-A beads) VH: DVQLQESGPGLVKPSQSLSLTCTVTGYSITSDYAWNWIRQFPGNKLEWMGYISYSGSTSYNPSLKSRISITRDTSKNQFFLQLNSVTTEDTATYYCARGVRGDMDYWGQGTSVTVSS VL: SIVMTQTPKFLLVSAGDRVTITCKASQSVSNDVAWYQQKPGQSPKLLIYYASNRYTGVPDRFTGSGYGTDFTFTISTVQAEDLAVYFCQQDYSSPFTFGSGTKLEIK |  | 7.17 ng/mL | 1.69 nM | 2.37 nM | binds | no binding (tested: initial concentration at 1 µg/ml) | 
46H3H3 (antibody, V domains shown, Hybridoma antibody purified with Protein-A beads) VH: EVKLVESGGGLVQPGGSRKLSCAASGFTFSDYGMVWVRQAPGKGLEWVAYIGSGRSTIYYADTVKGRFTISRDNPKNTLFLQMSSLRSEDTAMYYCAREDNGYSYAMDYWGQGTSVTVSS VL: DIQMTQSPASQSASLGESVTITCLASQTIGTWLAWYQQKPGKSPQLLIYAATSLADGVPSRFSGSGSGTKFSFKISSLQAEDFVSYYCQQLYSTPLTFGAGTKLELK |  | 6.34 ng/mL | 0.203 nM | 0.342 nM | binds | no binding (tested: initial concentration at 1 µg/ml) | 
85E10B9-VH1-VL6 (antibody, V domains shown) VH: QVQLVQSGAEVKKPGASVKVSCKASGYTFTNHYLHWVRQAPGQGLEWMGWIGPTNGDTSYAQKFKDRVTMTRDTSISTAYMELSRLRSDDTAVYYCAREGYFTNYFDYWGQGTLVTVSS VL: DIQMTQSPSSLSASVGDRVTITCKASQNVIKYLAWYQQKPGKAPKRLIYNASSLQTGVPSRFSGSGSGTEFTLTISSLQPDDFATYYCLQYNSWWTFGQGTKVEIK | 7.29 ng/mL |  |  |  |  |  | 
85E10B9-VH3-VL2 (antibody, V domains shown) VH: QVQLVQSGAEVKKPGASVKVSCKASGYTFTNHYLHWVRQAPGQRLEWMGWIGPTNGDTSYAQKFKDRVTITRDTSASTAYMELSSLRSEDTAVYYCAREGYFTNYFDYWGQGTLVTVSS VL: DIQLTQSPSFLSASVGDRVTITCKASQNVIKYLAWYQQKPGKAPKLLIYNASSLQTGVPSRFSGSGSGTEFTLTISSLQPEDFATYYCLQYNSWWTFGGGTKVEIK | 4.52 ng/mL |  |  |  |  |  | 
85E10B9-VH3-VL1 (antibody, V domains shown, Humanized antibody expressed in CHO-3E7; also called humanized 85E10B9 lead) VH: QVQLVQSGAEVKKPGASVKVSCKASGYTFTNHYLHWVRQAPGQRLEWMGWIGPTNGDTSYAQKFKDRVTITRDTSASTAYMELSSLRSEDTAVYYCAREGYFTNYFDYWGQGTLVTVSS VL: DIQMTQSPSSLSASVGDRVTITCKASQNVIKYLAWYQQKPGKVPKLLIYNASSLQTGVPSRFSGSGSGTDFTLTISSLQPEDVATYYCLQYNSWWTFGGGTKVEIK | 0.718 ng/mL |  |  |  |  |  | binds
